The record followed here is PMC11535040, “Requirement of Nek2a and cyclin A2 for Wapl-dependent removal of cohesin from prophase chromatin” (The EMBO Journal, 2024).

The assay concerns the target T1, Flag-tagged Pds5b-Ser1177,1182,1209Ala (3A) phosphorylated by Cdk1/2-cyclin A2 (human, UniProt Q9NTI5 1-1447, Ser1177,1182,1209Ala | Ser1177,1182,1209Ala | Ser1177,1182,1209Ala, phosphoserine at 1161 and 1166 (by Cdk1/2-cyclin A2)).
T1 construct: Pds5b, human; also called Pds5b-3A
T1 sequence (looked up): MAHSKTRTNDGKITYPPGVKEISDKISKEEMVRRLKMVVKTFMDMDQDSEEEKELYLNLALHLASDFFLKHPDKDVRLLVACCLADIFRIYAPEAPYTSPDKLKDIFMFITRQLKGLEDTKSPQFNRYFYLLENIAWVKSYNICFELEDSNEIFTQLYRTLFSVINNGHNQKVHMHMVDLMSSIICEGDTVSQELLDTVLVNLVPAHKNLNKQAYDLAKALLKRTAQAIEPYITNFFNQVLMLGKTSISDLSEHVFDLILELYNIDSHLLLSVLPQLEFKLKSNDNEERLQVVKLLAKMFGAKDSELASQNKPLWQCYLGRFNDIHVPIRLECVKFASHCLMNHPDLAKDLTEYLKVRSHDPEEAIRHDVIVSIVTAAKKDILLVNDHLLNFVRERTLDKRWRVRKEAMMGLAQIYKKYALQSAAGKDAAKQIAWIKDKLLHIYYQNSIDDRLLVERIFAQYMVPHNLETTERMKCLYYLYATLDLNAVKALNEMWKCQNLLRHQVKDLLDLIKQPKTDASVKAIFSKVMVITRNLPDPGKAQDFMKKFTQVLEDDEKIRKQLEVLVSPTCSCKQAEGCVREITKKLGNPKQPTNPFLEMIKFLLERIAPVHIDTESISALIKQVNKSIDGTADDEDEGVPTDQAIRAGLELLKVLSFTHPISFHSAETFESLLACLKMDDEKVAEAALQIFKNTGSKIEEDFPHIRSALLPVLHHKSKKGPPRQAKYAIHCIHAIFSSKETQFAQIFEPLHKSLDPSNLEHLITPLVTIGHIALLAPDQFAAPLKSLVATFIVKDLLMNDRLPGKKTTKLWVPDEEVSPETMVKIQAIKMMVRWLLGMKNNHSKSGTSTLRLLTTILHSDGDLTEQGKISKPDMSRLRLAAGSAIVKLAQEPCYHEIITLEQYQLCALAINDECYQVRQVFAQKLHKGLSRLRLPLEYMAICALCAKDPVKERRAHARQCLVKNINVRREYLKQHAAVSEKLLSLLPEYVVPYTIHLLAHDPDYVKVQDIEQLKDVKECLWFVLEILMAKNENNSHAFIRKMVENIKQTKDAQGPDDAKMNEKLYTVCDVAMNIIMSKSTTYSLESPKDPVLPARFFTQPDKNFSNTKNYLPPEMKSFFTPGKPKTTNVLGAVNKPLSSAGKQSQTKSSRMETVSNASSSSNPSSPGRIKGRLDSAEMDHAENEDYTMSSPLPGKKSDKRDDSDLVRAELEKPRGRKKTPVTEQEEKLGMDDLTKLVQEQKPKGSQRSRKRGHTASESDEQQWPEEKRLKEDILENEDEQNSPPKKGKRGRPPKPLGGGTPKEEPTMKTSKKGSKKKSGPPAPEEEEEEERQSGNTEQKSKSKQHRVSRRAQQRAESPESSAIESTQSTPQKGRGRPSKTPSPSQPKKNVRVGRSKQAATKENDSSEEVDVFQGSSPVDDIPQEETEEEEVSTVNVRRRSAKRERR
In words: pull-down; Flag-Pds5b variants affinity-purified from Nek2a- and cyclin A2-free prometaphase cells, incubated on the beads with recombinant Nek2a and/or Cdk1/2-cyclin A2 and ATP, washed, then incubated with recombinant Wapl (2 µl) and sororin (0.3 µg) in 15 µl cleavage buffer without ATP, 20 min at 37 °C; immunoblotting. Particulars: both partners purified.

B1: recombinant human Wapl (natural protein, UniProt Q7Z5K2 1-1190, looked up)
chain: MTSRFGKTYSRKGGNGSSKFDEVFSNKRTTLSTKWGETTFMAKLGQKRPNFKPDIQEIPKKPKVEEESTGDPFGFDSDDESLPVSSKNLAQVKCSSYSESSEAAQLEEVTSVLEANSKISHVVVEDTVVSDKCFPLEDTLLGKEKSTNRIVEDDASISSCNKLITSDKVENFHEEHEKNSHHIHKNADDSTKKPNAETTVASEIKETNDTWNSQFGKRPESPSEISPIKGSVRTGLFEWDNDFEDIRSEDCILSLDSDPLLEMKDDDFKNRLENLNEAIEEDIVQSVLRPTNCRTYCRANKTKSSQGASNFDKLMDGTSQALAKANSESSKDGLNQAKKGGVSCGTSFRGTVGRTRDYTVLHPSCLSVCNVTIQDTMERSMDEFTASTPADLGEAGRLRKKADIATSKTTTRFRPSNTKSKKDVKLEFFGFEDHETGGDEGGSGSSNYKIKYFGFDDLSESEDDEDDDCQVERKTSKKRTKTAPSPSLQPPPESNDNSQDSQSGTNNAENLDFTEDLPGVPESVKKPINKQGDKSKENTRKIFSGPKRSPTKAVYNARHWNHPDSEELPGPPVVKPQSVTVRLSSKEPNQKDDGVFKAPAPPSKVIKTVTIPTQPYQDIVTALKCRREDKELYTVVQHVKHFNDVVEFGENQEFTDDIEYLLSGLKSTQPLNTRCLSVISLATKCAMPSFRMHLRAHGMVAMVFKTLDDSQHHQNLSLCTAALMYILSRDRLNMDLDRASLDLMIRLLELEQDASSAKLLNEKDMNKIKEKIRRLCETVHNKHLDLENITTGHLAMETLLSLTSKRAGDWFKEELRLLGGLDHIVDKVKECVDHLSRDEDEEKLVASLWGAERCLRVLESVTVHNPENQSYLIAYKDSQLIVSSAKALQHCEELIQQYNRAEDSICLADSKPLPHQNVTNHVGKAVEDCMRAIIGVLLNLTNDNEWGSTKTGEQDGLIGTALNCVLQVPKYLPQEQRFDIRVLGLGLLINLVEYSARNRHCLVNMETSCSFDSSICSGEGDDSLRIGGQVHAVQALVQLFLERERAAQLAESKTDELIKDAPTTQHDKSGEWQETSGEIQWVSTEKTDGTEEKHKKEEEDEELDLNKALQHAGKHMEDCIVASYTALLLGCLCQESPINVTTVREYLPEGDFSIMTEMLKKFLSFMNLTCAVGTTGQKSISRVIEYLEHC
notes: Wapl, human; insert by PCR on human cDNA; Isolated from mitotically arrested cells; also called GFP-SUMOstar-Wapl; source: Hek293T, transiently transfected, taxol-arrested; not shown: GFP, N-terminal, cleaved; SUMOstar, N-terminal, cleaved
For the molecule B1, the binding result is on record as “binds”.
